Measurements taken from PMC5377774.

Biological target: His827 (UniProt position 827, GQFLDHDLDST)
Assay: kinetics (stopped-flow UV-vis spectroscopy)
Conditions: 25 °C (stated for the stopped-flow reactions in general; not restated for the pH profile); Citrate phosphate buffer pH 4-5.5; phosphate buffer pH 5.5-8; carbonate buffer pH 9 and 10. A concentration of 100 mM is given for the analogous bromide pH profile in the Fig. 7D caption.; Ferric high-spin resting enzyme reacting with H2O2 to form compound I; heme covalently linked

Peroxidasin 1, truncated construct hsPxd01-con4 (four Ig domains + peroxidase domain) (Homo sapiens)
pKa: ∼4.7
